Measurements taken from patent US20060172374A1 (Novartis, published 2006).

Tests used:
HA-NDR1 T74A = molecular target: T1, HA-NDR1 T74A (human, UniProt Q15208 1-465); experiment: co-immunoprecipitation of myc-hMOB1 with HA-NDR, OA-treated COS-1 cells
T1 construct: pCMV5_HA-NDR1 mutant expressed in COS-1 cells; also called T74A mutant

HA-tagged NDR1 wild type = molecular target: T2, HA-tagged NDR1 wild type (human, UniProt Q15208 1-465); experiment: co-immunoprecipitation, summary of Example 8
T2 construct: also called HA-NDR1; HA-NDR

[1] = molecular target: T3, HA-NDR N-terminal point mutant, arginine 78 to alanine (human, UniProt Q15208 1-465); experiment: co-immunoprecipitation of myc-hMOB1 with HA-NDR point mutants, OA-treated COS1 cells
T3 construct: also called arginine 78 mutant

[2] = molecular target: T4, HA-NDR N-terminal point mutant, tyrosine 31 to alanine (human, UniProt Q15208 1-465); experiment: as above
T4 construct: also called tyrosine 31 mutant

[3] = molecular target: T5, HA-NDR N-terminal point mutant, arginine 41 to alanine (human, UniProt Q15208 1-465); experiment: as above
T5 construct: also called arginine 41 mutant
T5 sequence (Q15208 other isoform, or with tags, fused parts or gaps mutant limits assumed): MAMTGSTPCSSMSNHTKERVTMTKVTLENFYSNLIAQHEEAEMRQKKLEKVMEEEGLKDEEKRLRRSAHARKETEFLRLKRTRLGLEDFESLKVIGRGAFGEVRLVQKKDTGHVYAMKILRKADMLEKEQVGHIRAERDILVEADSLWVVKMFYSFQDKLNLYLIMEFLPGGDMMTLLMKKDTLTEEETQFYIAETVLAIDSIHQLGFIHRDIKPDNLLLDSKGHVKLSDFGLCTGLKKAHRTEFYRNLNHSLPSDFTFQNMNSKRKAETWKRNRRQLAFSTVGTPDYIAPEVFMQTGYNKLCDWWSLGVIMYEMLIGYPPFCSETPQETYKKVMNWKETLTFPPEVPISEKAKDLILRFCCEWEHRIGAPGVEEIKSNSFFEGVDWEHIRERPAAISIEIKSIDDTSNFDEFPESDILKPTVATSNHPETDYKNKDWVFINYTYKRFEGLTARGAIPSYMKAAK

T1 sequence (Q15208 whole entry T74A): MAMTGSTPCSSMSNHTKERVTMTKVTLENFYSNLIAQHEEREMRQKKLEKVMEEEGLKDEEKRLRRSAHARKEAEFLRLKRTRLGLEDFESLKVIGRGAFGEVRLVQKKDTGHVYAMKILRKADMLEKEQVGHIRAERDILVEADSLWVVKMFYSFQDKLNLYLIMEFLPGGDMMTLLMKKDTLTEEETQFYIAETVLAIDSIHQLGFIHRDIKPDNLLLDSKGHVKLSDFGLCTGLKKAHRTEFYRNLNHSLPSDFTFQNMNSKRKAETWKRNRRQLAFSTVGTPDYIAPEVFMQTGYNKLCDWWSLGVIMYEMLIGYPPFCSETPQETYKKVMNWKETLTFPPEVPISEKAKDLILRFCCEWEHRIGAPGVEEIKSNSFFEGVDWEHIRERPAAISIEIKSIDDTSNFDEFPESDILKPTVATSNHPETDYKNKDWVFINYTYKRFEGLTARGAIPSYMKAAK
T2 sequence (Q15208 whole entry): as the sequence (Q15208 whole entry T74A) above, with A74T counted along it
T3 sequence (Q15208 other isoform, or with tags, fused parts or gaps mutant limits assumed): as the sequence (Q15208 whole entry T74A) above, with A74T, R78A counted along it
T4 sequence (Q15208 other isoform, or with tags, fused parts or gaps mutant limits assumed): as the sequence (Q15208 whole entry T74A) above, with Y31A, A74T counted along it

B1: myc-tagged hMOB1 (other, not shown: small tags and cut ends)
chain: MSFLFSSRSSKTFKPKKNIPEGSHQYELLKHAEATLGSGNLRQAVMLPEGEDLNEWIAVNTVDFFNQINMLYGTITEFCTEASCPVMSAGPRYEYHWADGTNIKKPIKCSAPKYIDYLMTWVQDQLDDETLFPSKIGVPFPKNFMSVAKTILKRLFRVYAHIYHQHFDSVMQLQEEAHLNTSFKHFIFFVQEFNLIDRRELAPLQELIEKLGSKDR
modifications: okadaic acid induced modification of MOB1 (not identified) in cells treated with okadaic acid
notes: also called myc-hMOB1; myc-mob1
HA-NDR1 T74A
  binding result: no binding
HA-tagged NDR1 wild type
  binding result: binds
[1]
  binding result: no binding
[2]
  binding result: no binding
[3]
  binding result: no binding
